Measurements: patent US20230348603A1 (VERSEAU THERAPEUTICS, published 2023)

T1: Cynomolgus Monkey VSIG4-L-His (cynomolgus monkey)
T1 construct: ECD with His tag; also called cyVSIG4-L; cyno VSIG4-L-His
T1 chain: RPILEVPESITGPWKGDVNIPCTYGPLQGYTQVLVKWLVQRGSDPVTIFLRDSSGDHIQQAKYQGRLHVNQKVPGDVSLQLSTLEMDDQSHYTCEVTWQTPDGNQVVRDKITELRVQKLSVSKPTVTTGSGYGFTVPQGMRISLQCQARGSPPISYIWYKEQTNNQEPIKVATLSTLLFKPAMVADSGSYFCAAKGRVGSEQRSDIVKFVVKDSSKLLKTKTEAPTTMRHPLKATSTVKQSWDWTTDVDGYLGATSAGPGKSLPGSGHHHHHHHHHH

T2: Human VSIG4-L-His (human, UniProt Q9Y279 20-283)
T2 construct: long isoform ECD with His tag; also called hVSIG4-L
T2 sequence: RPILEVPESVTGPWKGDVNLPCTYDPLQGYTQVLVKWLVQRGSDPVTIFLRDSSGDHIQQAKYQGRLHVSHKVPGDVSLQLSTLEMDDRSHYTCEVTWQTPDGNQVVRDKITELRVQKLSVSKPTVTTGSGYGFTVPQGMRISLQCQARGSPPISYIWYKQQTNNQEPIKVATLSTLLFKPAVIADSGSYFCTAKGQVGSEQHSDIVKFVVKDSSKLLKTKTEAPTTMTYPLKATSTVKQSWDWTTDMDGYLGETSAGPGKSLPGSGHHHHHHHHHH


Experiments:
Human VSIG4-L-Fc [1] = molecular target: T3, Human VSIG4-L-Fc (human); test: ELISA, Fab P.E. 1:5 on coated antigen;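 also: mouse Fab P.E. samples in 1% skimmed milk PBS, bound to antigen-coated wells for 1 h at room temperature, read as absorbance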
T3 construct: also called hVSIG4-L-Fc; hVSIG4-L
Target sequence in this assay (chain, as listed by the source limits assumed): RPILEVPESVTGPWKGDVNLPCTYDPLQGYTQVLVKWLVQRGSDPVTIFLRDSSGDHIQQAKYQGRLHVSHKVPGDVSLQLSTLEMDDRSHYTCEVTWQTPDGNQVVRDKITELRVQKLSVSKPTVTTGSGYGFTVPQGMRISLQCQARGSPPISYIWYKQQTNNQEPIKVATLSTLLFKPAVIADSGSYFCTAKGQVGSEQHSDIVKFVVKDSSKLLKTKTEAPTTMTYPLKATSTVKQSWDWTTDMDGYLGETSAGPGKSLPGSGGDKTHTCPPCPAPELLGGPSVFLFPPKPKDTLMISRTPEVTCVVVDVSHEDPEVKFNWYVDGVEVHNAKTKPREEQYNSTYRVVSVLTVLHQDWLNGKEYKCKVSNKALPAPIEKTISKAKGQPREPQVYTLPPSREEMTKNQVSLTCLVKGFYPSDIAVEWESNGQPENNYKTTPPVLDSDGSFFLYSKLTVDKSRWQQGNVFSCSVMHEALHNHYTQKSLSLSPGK
Experimental: (§1) Coated microplates were blocked with dried skimmed milk at 4% in PBS. P.E. samples of the mouse unique Fab sequences were diluted 1:5 in assay buffer (1% dried skimmed milk in PBS), and 100 μl of diluted sample was added onto the coated wells and incubated for one hour at room temperature. […] Optical density (OD) at 450 nm was determined using a standard absorbance microplate reader.

Human VSIG4-S-Fc = molecular target: T4, Human VSIG4-S-Fc (human); test: ELISA, Fab P.E. 1:5 on coated antigen;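 also: mouse Fab P.E. samples in 1% skimmed milk PBS, bound to antigen-coated wells for 1 h at room temperature, read as absorbance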
T4 construct: short isoform ECD fused to human Fc1; also called hVSIG4-S
Experimental: as §1

[2] = molecular target: T1, Cynomolgus Monkey VSIG4-L-His; test: ELISA, Fab P.E. 1:5 on coated antigen;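 also: mouse Fab P.E. samples in 1% skimmed milk PBS, bound to antigen-coated wells for 1 h at room temperature, read as absorbance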
Experimental: as §1

Human VSIG4-L-Fc [3] = molecular target: T3, Human VSIG4-L-Fc; test: blocking ELISA, biotin-C3b on coated hVSIG4-L-Fc
Experimental: (§2) Coated microplates were blocked with casein (Sigma-Aldrich, St. Louis, MO) at 1% in PBS. […] One hundred ill of the mixed sample was added onto the coated wells and incubated for one hour at room temperature. […] OD at 450 nm was determined using a standard absorbance microplate reader.

Human VSIG4-L-Fc [4] = molecular target: T3, Human VSIG4-L-Fc; test: blocking ELISA, biotin-iC3b on coated hVSIG4-L-Fc
Target sequence in this assay (chain, as listed by the source limits assumed): as above
Experimental: as §2

Human VSIG4-L-His = molecular target: T2, Human VSIG4-L-His; test: SPR (Biacore T200), Fab P.E. 1:5 over immobilised antigen
Experimental: Off-rate values of the mouse unique Fab clones were determined using surface plasmon resonance (SPR) in Biacore™ T200 equipment (GE Healthcare, Chicago, IL). […] The immobilization was performed in accordance with a method provided by Biacore and by using the NHS/EDC kit (GE Healthcare, Chicago, IL). […] Sixty μl of Fab P.E. samples, diluted 1:5 in HBS-EP+ assay buffer (0.1 M HEPES, 1.5 M NaCl, 0.03 M EDTA and 0.5% v/v Surfactant P20), were injected and passed through the flow cells at a flow rate of 30 μl/min. After binding of the samples to VSIG4 protein, the off-rate was monitored for a period of five minutes. The flow cell surface was regenerated by a double injection of 10 μl of 1 mM glycine at pH 1.5 in 1 M sodium chloride at 30 μl/min. Off-rate analysis was done using the BIAevaluation software (GE Healthcare, Chicago, IL) and using a 1:1 dissociation kinetic fit curve.

Row | Binder | ELISA OD450 (Human VSIG4-L-Fc [1]) [OD450] | ELISA OD450 (Human VSIG4-S-Fc) [OD450] | ELISA OD450 [2] [OD450] | Percent Blocking C3b (Human VSIG4-L-Fc [3]) [%] | Percent Blocking iC3b (Human VSIG4-L-Fc [4]) [%] | koff (Human VSIG4-L-His) [s⁻¹]
1 | 14D12 mouse Fab (periplasmic extract) (Fab, V domains shown, mouse Fab with C-terminal His6-c-myc tag) VH: QIQLVQSGPELKKPGETVKISCKASGYTFTNYGMNWVKQTPGKGLKWMGLINTYTGEPTYADDFKGRFAFSLETSASTAYLQINNLKNEDMATYFCARERIYGYLHYFDYWGQGTTLTVSS VL: DVVMTQTPASLAVSLGQRATISCKASQSVDYDGDSYMNWYQQKPGQPPKLLIYAASNLESGIPARFSGSGSGTDFTLNIHPVEEEDAATYYCQQSNEDPRTFGGGTKLEIK | 4.32 | 4.18 | 4.32 | 70.3 | 56 | 0.0063
2 | 15A06 mouse Fab (periplasmic extract) (Fab, V domains shown, mouse Fab with C-terminal His6-c-myc tag) VH: QVQMKQSGPSLVRPSQTLSLTCSVTGDSITSGYWNWIRKFPGDKFEYLGYISYSGFTYYNPSLKSRVSITRDTSKNQYYLQLHSVTTEDTATYYCASSKYGSSLGFPYWGQGTLVTVSA VL: DVVMTQTPLSLPVSLGDQASISCRSSQSLVHSNGNTYLHWYLQKPGQSPKLLIYKVSNRFSGVPDRFSGSGSGTDFTLKISRVEAEDLGVYFCSQSTHVPFTFGSGTKLEIK | 4.42 | 0.06 | 0.05 | – | 1.4 | 0.0015
3 | 14C05 mouse Fab (periplasmic extract) (Fab, V domains shown, mouse Fab with C-terminal His6-c-myc tag) VH: EVMLVESGPELKKPGETVKISCKASGYTFTNYGMNWVKQAPGKGLKWMGSINTYTGEATYADDFKGRFAFSLETSANTAYLQIDNLKNEDTATYFCARGDYYGRGTWFAYWGQGTLVTVSA VL: ETTVTQSHKFMSTSVGDRVSITCKASQDVSTAVAWYQQKPGQSPKLLIYSASYRYPGVPDRFTGSGSGTDFTFTISSVQAEDLAVYYCQQDYSSPWTFGGGTKLEIK | 4.33 | 4.32 | 4.37 | 88.8 | 88.7 | 0.00037
4 | 13H11 mouse Fab (periplasmic extract) (Fab, V domains shown, mouse Fab with C-terminal His6-c-myc tag) VH: QIQLVQSGPELKKPGETVKISCKASGYTFENFGMNWVKQAPGKGLKWMGWINTYTGEATYADDFKGRFAFSLETSASTAYLQINNLKNEDTATYFCARDGGFRHFDVWGAGTTVTVSS VL: ETTVTQSPASLSVATGEKVTIRCITSTDIDDDMNWYQQKPGEPPKLLISEGNTLRPGVPSRFSSSGYGTDFVFTIENMLSEDVADYYCLQSDNLPLTFGAGTKLELK | 4.33 | 0.06 | 4.34 | 46.9 | – | 0.045
5 | 16E10 mouse Fab (periplasmic extract) (Fab, V domains shown, mouse Fab with C-terminal His6-c-myc tag) VH: QVQLQQSGAELVRPGTSVKISCKASGYTFTNYWLGWVKQRPGHGLEWIGDIYPGGGYTNYNEKFKGKATLTADTSSSTAYMQLSSLTSEDSAVYFCAKFYYYGSSYYFDSWGQGTTLTVSS VL: DIVLTQSPSSLSVSAGEKVTLSCKSSQSLLNSGNQENYLAWYQQKPGQPPKLLIYGASTRESGVPDRFTGSGSGTDFTLTISSVQAEDLAVYYCQNDHSYPLTFGAGTKLELK | 1.86 | 1.32 | 1.88 | 7.1 | 7.6 | 0.025
6 | 12A12 mouse Fab (periplasmic extract) (Fab, V domains shown, mouse Fab with C-terminal His6-c-myc tag) VH: QVQMKQSGAELAKPGASVKMSCKASGYTFTNYWMHWVKQRPGQGLEWIGYINPSTGYTDYNQNFKDRATLTADKSSSTAYMQLSSLTSEDSAVYYCIRGSDYYGRDYWGQGTTLTVSS VL: DIQMTQTTSSLSASLGDRVTISCRASQDISNYLNWYQQKPDGTLKLLIYYTSRLHSGVPSRFSGSGSGTDYSLTISNLEQEDIATYFCRQGNTLPWTFGGGTKLEIK | 4.42 | 4.18 | 4.37 | 74.8 | 76.5 | 0.0038
7 | 12A08 mouse Fab (periplasmic extract) (Fab, V domains shown, mouse Fab with C-terminal His6-c-myc tag) VH: EVMLVESGGGLVKPGGSLKLSCAASGFTFDDFYMYWVRQTPEKRLEWVASISDGGTYTYYPDSVKGRFTISRDNAKNTLYLQLSSLKSEDTAMYYCARGVDKYYYAMDYWGQGTSVTVSS VL: QILLTQSPAIMSASPGEKVTITCSASSSVSYMHWFQQKPGTSPKLWIYSTSNLASGVPARFSGSGSGTSYSLTISRMEAEDAATYYCQQRSSYPLTFGAGTKLELK | 4.45 | 4.09 | 4.27 | 57.6 | 53.4 | 0.013
8 | 15C03 mouse Fab (periplasmic extract) (Fab, V domains shown, mouse Fab with C-terminal His6-c-myc tag) VH: EVKLLESGPGLVKPSQSLSLTCTVTGYSITSDYAWNWIRQFPGNKLEWMGYISYSGSTRYNPSLKSRISITRDTSNNQFFLQLNSVTTEDTATYYCARSGYAAMDYWGQGTSVTVSS VL: ENVLTQSPAIMSASPGEKVTMTCRASSSVSSSYLHWYQQKSGASPKLWIYSTSNLASGVPARFSGSGSGTSYSLTISSVEAEDAATYYCQQYSGYPLTFGSGTKLEIK | 4.2 | 4.05 | 0.05 | 42.7 | – | 0.0076
